{"source": "patent US20090042269", "proteins": {"B1": {"name": "bovine QSOX1 (quiescin Q6 sulfhydryl oxidase 1) isolated from milk (protein)", "chain": "SALYSSSDPLTLLRADTVRSTVLGSSSAWAVEFFASWCGHCIAFAPTWKALANDVKDWRPALNLAALDCAEETNSAVCRDFNIPGFPTVRFFKAFSKTGSGTTLSVAGADVQTLRERLIDALESHSDTWPPACPPLEPARLEEITGFFARNNEEYLALIFEKEGSYLGREVTLDLSQHQGIAVRRVLNTERDVVNRFGVTNFPSCYLLSRNGSFSRVPALTESRSFYTTYLRKFSGSTRGAVQTTAAPATTSAVAPTVWKVADRSKIYMADLESALHYILRIEVGKFSVLEGQRLVALKKFMAVLAKYFRGRPLVQNFLHSMNDWLKKQQRKKIPYGFFKNALDSRKEGTVIAEKVNWVGCQGSEPHFRGFPCSLWILFHFLTVQAAQEGVDHPQERAKAQEVLQAIRGYVRFFFGCRECAGHFEQMASGSMHRVGSLNSAVLWFWSSHNKVNARLAGAPSEDPQFPKVQWPPRELCSACHNELRGTPVWDLDNILKFLKTHFSPSNIVLDFPSAGPGPWR"}}, "target": "reduced RNase (reduced pancreatic RNase)"}
{"protein": "B1", "values": [{"measurement": "KM", "result": 60, "unit": "µM"}, {"measurement": "kcat (min^-1), thiols oxidized per minute", "result": 1340, "unit": "min⁻¹"}, {"measurement": "kcat/KM", "result": 374000, "unit": "M⁻¹ s⁻¹"}]}
